From publication PMC2905415, “Characterization of a Clp Protease Gene Regulator and the Reaeration Response in Mycobacterium tuberculosis” come the findings set out here.

For one series, the target named is T1, Rv2745-S L24SR25D (DBL) (Mycobacterium tuberculosis, UniProt P9WMH7 1-112, L24S;R25D;V111D;A112D).
T1 sequence: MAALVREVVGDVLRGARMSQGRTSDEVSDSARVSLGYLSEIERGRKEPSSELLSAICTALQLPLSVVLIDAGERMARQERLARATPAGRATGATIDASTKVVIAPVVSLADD
The experiment in a line: EMSA. The conditions noted are these: protein: recombinant; chain copies: 2; label: 5' Cy5.5; blunt. In general terms: In EMSA bound probe runs differently from free probe, usually more slowly.

Series [1] addresses T2, Rv2745-S (ClgR, stabilized/soluble form) (Mycobacterium tuberculosis, UniProt P9WMH7 1-112, V111D;A112D).
T2 sequence: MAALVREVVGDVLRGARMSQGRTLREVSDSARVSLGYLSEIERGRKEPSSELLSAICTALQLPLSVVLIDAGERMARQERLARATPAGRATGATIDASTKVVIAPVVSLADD
The experiment in a line: EMSA. As to conditions: protein: recombinant; tags: NusA fusion and His tag (pET50b), removed with HRV3C protease; chain copies: 2; label: 5' Cy5.5; blunt.

Series [2] has as its target T2, Rv2745-S (ClgR, stabilized/soluble form). The experiment in a line: competition. As to conditions: protein: recombinant; tags: NusA fusion and His tag (pET50b), removed with HRV3C protease; chain copies: 2; blunt.

B1: clpC1 promoter probe (dsDNA)
DNA 1: CGAGCGGCCATCGGTTCGCCGCCAGCGAACGCGGCAAAGTAC
DNA 2: GTACTTTGCCGCGTTCGCTGGCGGCGAACCGATGGCCGCTCG
Turning to B1, the binding result with Rv2745-S L24SR25D (DBL) is “no binding”; in series [1] it was “binds”.

B2: clpC1 promoter unlabeled competitor (dsDNA)
DNA 1: CGAGCGGCCATCGGTTCGCCGCCAGCGAACGCGGCAAAGTAC
DNA 2: GTACTTTGCCGCGTTCGCTGGCGGCGAACCGATGGCCGCTCG
Turning to B2, the binding result in series [2] is recorded as “binds”.
